Reference: the Human Domainome abundance scans (Beltran et al. 2025)
± gives the uncertainty stated by the source.

B1: Zinc finger homeobox protein 3, residues 2643 to 2698; numbered along this chain, Q15911 (parent)
chain: RLRTTITPEQLEILYQKYLLDSNPTRKMLDHIAHEVGLKKRVVQVWFQNTRARERK

Variants of: B1
Assay: abundance fitness (aPCA) (normalised: wild type 0, dead -1); higher = more abundant; growth selection in yeast, the domain comes from the species named
Conditions: Homo sapiens

**Q.** For RLRTTITPEQLEILYQKYLLDSNPTRKMLDHIAHEVGLKKFVVQVWFQNTRARERK [R41F], which abundance fitness is on record?
**A.** -0.203 ± 0.2

**Q.** Which abundance fitness does the source give for RLRTTITPEQLEILYQKYLLDSNPTRKMLDHIAHEVGLKKAVVQVWFQNTRARERK [R41A] here?
**A.** 0.159 ± 0.11

**Q.** With RLRTTITPEQLEICYQKYLLDSNPTRKMLDHIAHEVGLKKRVVQVWFQNTRARERK [L14C] as the variant, how does the abundance fitness read?
**A.** -0.886 ± 0.18

**Q.** With RLRTTITPEQLEIWYQKYLLDSNPTRKMLDHIAHEVGLKKRVVQVWFQNTRARERK [L14W] as the variant, how does the abundance fitness read?
**A.** -0.758 ± 0.11

**Q.** Which abundance fitness does the source give for RLRTTITPEQLEILYQKYLLDSNPTRKMLDHIAHEVGLKKRVQQVWFQNTRARERK [V43Q] here?
**A.** -1 ± 0.16

**Q.** With RLRTFITPEQLEILYQKYLLDSNPTRKMLDHIAHEVGLKKRVVQVWFQNTRARERK [T5F] as the variant, how does the abundance fitness read?
**A.** -0.358 ± 0.2

**Q.** For RLRTPITPEQLEILYQKYLLDSNPTRKMLDHIAHEVGLKKRVVQVWFQNTRARERK [T5P], which abundance fitness is on record?
**A.** 0.176 ± 0.17

**Q.** For RLRTTITPEQLEILYQKYFLDSNPTRKMLDHIAHEVGLKKRVVQVWFQNTRARERK [L19F], which abundance fitness is on record?
**A.** -0.36 ± 0.15

**Q.** Which abundance fitness does the source give for RLRTTITPEQLEILYQKYRLDSNPTRKMLDHIAHEVGLKKRVVQVWFQNTRARERK [L19R] here?
**A.** -0.087 ± 0.078

**Q.** Which abundance fitness does the source give for RLRTTITPEQLEILYQKYLLDSNPTRKMLDHIAHEVPLKKRVVQVWFQNTRARERK [G37P] here?
**A.** -0.637 ± 0.13

**Q.** Which abundance fitness does the source give for RLRTTITYEQLEILYQKYLLDSNPTRKMLDHIAHEVGLKKRVVQVWFQNTRARERK [P8Y] here?
**A.** 0.116 ± 0.14

**Q.** With RLRTTITEEQLEILYQKYLLDSNPTRKMLDHIAHEVGLKKRVVQVWFQNTRARERK [P8E] as the variant, how does the abundance fitness read?
**A.** -0.259 ± 0.14

**Q.** For RLRTTITPEQLEILYQKYLLDSNPTRKMLDHIAHEKGLKKRVVQVWFQNTRARERK [V36K], which abundance fitness is on record?
**A.** -0.985 ± 0.35

**Q.** With RLRTTITPEQLEILYSKYLLDSNPTRKMLDHIAHEVGLKKRVVQVWFQNTRARERK [Q16S] as the variant, how does the abundance fitness read?
**A.** -0.213 ± 0.1

**Q.** Which abundance fitness does the source give for RLRTTITPEQLEILYQRYLLDSNPTRKMLDHIAHEVGLKKRVVQVWFQNTRARERK [K17R] here?
**A.** 0.099 ± 0.078

**Q.** Which abundance fitness does the source give for RLRTTITPEQLEILYQIYLLDSNPTRKMLDHIAHEVGLKKRVVQVWFQNTRARERK [K17I] here?
**A.** -0.628 ± 0.44

**Q.** Which abundance fitness does the source give for RLRTTITPEQLEILYQKILLDSNPTRKMLDHIAHEVGLKKRVVQVWFQNTRARERK [Y18I] here?
**A.** -0.62 ± 0.23

**Q.** Which abundance fitness does the source give for RLRTTITPEQLEILYQKYLLDSNPTRKMLDHIAHEVGLKKRVVQVWFQNTRARSRK [E54S] here?
**A.** -0.497 ± 0.074

**Q.** Which abundance fitness does the source give for RLRTTITPEQLEILYQKYLLDSNPTRKMLDHIAHEVGLKKRVVQVWFQNTRARHRK [E54H] here?
**A.** -0.229 ± 0.084

**Q.** For RLRTTITPEQLHILYQKYLLDSNPTRKMLDHIAHEVGLKKRVVQVWFQNTRARERK [E12H], which abundance fitness is on record?
**A.** -0.069 ± 0.16

**Q.** For RLRTTITPEQLNILYQKYLLDSNPTRKMLDHIAHEVGLKKRVVQVWFQNTRARERK [E12N], which abundance fitness is on record?
**A.** -0.074 ± 0.18

**Q.** Which abundance fitness does the source give for RLRTTITPEQLGILYQKYLLDSNPTRKMLDHIAHEVGLKKRVVQVWFQNTRARERK [E12G] here?
**A.** -0.228 ± 0.077

**Q.** For RLRTTITPEQLTILYQKYLLDSNPTRKMLDHIAHEVGLKKRVVQVWFQNTRARERK [E12T], which abundance fitness is on record?
**A.** 0.041 ± 0.1

**Q.** With RLRTTITPEQLEILYQKYLLDSNPTRKMLDHIAHEVGLFKRVVQVWFQNTRARERK [K39F] as the variant, how does the abundance fitness read?
**A.** -0.929 ± 0.28

**Q.** Which abundance fitness does the source give for RLRTTITPEQLEILYQKYLLDSNPTRKMLDHIAHEVGLAKRVVQVWFQNTRARERK [K39A] here?
**A.** 0.236 ± 0.087

**Q.** With RLRTTITPEQLEILYQKYLLDSNPTRKMLDHIAHEVGLEKRVVQVWFQNTRARERK [K39E] as the variant, how does the abundance fitness read?
**A.** 0.518 ± 0.13

**Q.** Which abundance fitness does the source give for RLRTTITPEQLEILYQKYLLDSNPTRKMLDHIAHEVGMKKRVVQVWFQNTRARERK [L38M] here?
**A.** -0.009 ± 0.13

**Q.** With RLRTTITPEQLEILYQKYLLDSNPTRKMLDHIAHEVGKKKRVVQVWFQNTRARERK [L38K] as the variant, how does the abundance fitness read?
**A.** -0.712 ± 0.17

**Q.** With RLRTTITPEQLEILYQKYLLDSNPTRKMLDHIAHEVGTKKRVVQVWFQNTRARERK [L38T] as the variant, how does the abundance fitness read?
**A.** -0.616 ± 0.13

**Q.** With RLRTTITPEQLEILYQKYLLDSNPTRKMLDHIAHEVGLKRRVVQVWFQNTRARERK [K40R] as the variant, how does the abundance fitness read?
**A.** -0.064 ± 0.082

**Q.** For RLRTTITPEQLEILYQKYLLDSNPTRKMLDHIAHEVGLKNRVVQVWFQNTRARERK [K40N], which abundance fitness is on record?
**A.** 0.238 ± 0.17

**Q.** Which abundance fitness does the source give for RLRTTITPEQLEILYQKYLLDSNPTRKMLDHIAHEVGLKKRVVQVWFQNIRARERK [T50I] here?
**A.** -0.247 ± 0.11

**Q.** Which abundance fitness does the source give for RLRTTITPEQLEILYQKYLLDSNPTRKMLDHIAHEVGLKKRVVQVWFQNQRARERK [T50Q] here?
**A.** 0.243 ± 0.12

**Q.** Which abundance fitness does the source give for RLRTTITPEQTEILYQKYLLDSNPTRKMLDHIAHEVGLKKRVVQVWFQNTRARERK [L11T] here?
**A.** -0.117 ± 0.14

**Q.** For RLRTTITPEQMEILYQKYLLDSNPTRKMLDHIAHEVGLKKRVVQVWFQNTRARERK [L11M], which abundance fitness is on record?
**A.** -0.032 ± 0.12

**Q.** Which abundance fitness does the source give for RLRTTITPEQLEILYQKYLLDSNPTRKMLDHIAHEVGLKKRVVQWWFQNTRARERK [V45W] here?
**A.** -0.317 ± 0.11

**Q.** For RLRTTITPEQLEILYQKYLLDSCPTRKMLDHIAHEVGLKKRVVQVWFQNTRARERK [N23C], which abundance fitness is on record?
**A.** -0.594 ± 0.2

**Q.** With RLRTTITPMQLEILYQKYLLDSNPTRKMLDHIAHEVGLKKRVVQVWFQNTRARERK [E9M] as the variant, how does the abundance fitness read?
**A.** -0.272 ± 0.1

**Q.** For RLRTTITPNQLEILYQKYLLDSNPTRKMLDHIAHEVGLKKRVVQVWFQNTRARERK [E9N], which abundance fitness is on record?
**A.** -0.218 ± 0.1

**Q.** With RLRTTITPFQLEILYQKYLLDSNPTRKMLDHIAHEVGLKKRVVQVWFQNTRARERK [E9F] as the variant, how does the abundance fitness read?
**A.** -0.495 ± 0.077

**Q.** For RLRTTITPEQLEILYQKYLLDSNPTRKMTDHIAHEVGLKKRVVQVWFQNTRARERK [L29T], which abundance fitness is on record?
**A.** -0.273 ± 0.097

**Q.** For RLRTTITPEQLEILYQKYLLDSNPTRKMQDHIAHEVGLKKRVVQVWFQNTRARERK [L29Q], which abundance fitness is on record?
**A.** -0.254 ± 0.12

**Q.** For LLRTTITPEQLEILYQKYLLDSNPTRKMLDHIAHEVGLKKRVVQVWFQNTRARERK [R1L], which abundance fitness is on record?
**A.** 0.561 ± 0.31

**Q.** Which abundance fitness does the source give for GLRTTITPEQLEILYQKYLLDSNPTRKMLDHIAHEVGLKKRVVQVWFQNTRARERK [R1G] here?
**A.** 0.258 ± 0.11

**Q.** With RLRTTITPEQLEILYQKYLLDSNPTRKMLDHIAHAVGLKKRVVQVWFQNTRARERK [E35A] as the variant, how does the abundance fitness read?
**A.** -0.127 ± 0.091

**Q.** With RLRTTITPEQLEILYQKYLLDSNPTRKMLDHIAHTVGLKKRVVQVWFQNTRARERK [E35T] as the variant, how does the abundance fitness read?
**A.** 0.063 ± 0.092

**Q.** Which abundance fitness does the source give for RLRTTITPEQLEILYQKYLLDSNPTRKMLDHIAHWVGLKKRVVQVWFQNTRARERK [E35W] here?
**A.** -0.509 ± 0.11
